From patent publication US20220267469A1 (LIPUM, published 2022) come the findings set out here.

B2: Mouse BSSL, recombinant (enzyme)
chain: AKLGAVYTEGGFVEGVNKKLSLLGGDSVDIFKGIPFATAKTLENPQRHPGWQGTLKATNFKKRCLQATITQDNTYGQEDCLYLNIWVPQGRKQVSHNLPVMVWIYGGAFLMGSGQGANFLKNYLYDGEEIATRGNVIVVTFNYRVGPLGFLSTGDANLPGNFGLRDQHMAIAWVKRNIAAFGGDPDNITIFGESAGAASVSLQTLSPYNKGLIRRAISQSGMALSPWAIQKNPLFWAKTIAKKVGCPTEDTGKMAACLKITDPRALTLAYKLPVKKQEYPVVHYLAFIPVIDGDFIPDDPINLYNNTADIDYIAGINNMDGHLFATIDVPAVDKTKQTVTEEDFYRLVSGHTVAKGLKGAQATFDIYTESWAQDPSQENMKKTVVAFETDVLFLIPTEIALAQHKAHAKSAKTYSYLFSHPSRMPIYPKWMGADHADDLQYVFGKPFATPLGYRPQDRAVSKAMIAYWTNFARSGDPNMGNSPVPTHWYPYTLENGNYLDITKTITSASMKEHLREKFLKFWAVTFEVLPTVTGDQDTLTPPEDDSEVAPDPPSDDSQVVPVPPTDDSVEAQMPATIGF
notes: Bought (R&D Systems, Cat. no 5658-CE); also called mBSSL; murine BSSL
B3: Human BSSL (bile salt-stimulated lipase), native (enzyme)
chain: AKLGAVYTEGGFVEGVNKKLGLLGDSVDIFKGIPFAAPTKALENPQPHPGWQGTLKAKNFKKRCLQATITQDSTYGDEDCLYLNIWVPQGRKQVSRDLPVMIWIYGGAFLMGSGHGANFLNNYLYDGEEIATRGNVIVVTFNYRVGPLGFLSTGDANLPGNYGLRDQHMAIAWVKRNIAAFGGDPNNITLFGESAGGASVSLQTLSPYNKGLIRRAISQSGVALSPWVIQKNPLFWAKKVAEKVGCPVGDAARMAQCLKVTDPRALTLAYKVPLAGLEYPMLHYVGFVPVIDGDFIPADPINLYANAADIDYIAGTNNMDGHIFASIDMPAINKGNKKVTEEDFYKLVSEFTITKGLRGAKTTFDVYTESWAQDPSQENKKKTVVDFETDVLFLVPTEIALAQHRANAKSAKTYAYLFSHPSRMPVYPKWVGADHADDIQYVFGKPFATPTGYRPQDRTVSKAMIAYWTNFAKTGDPNMGDSAVPTHWEPYTTENSGYLEITKKMGSSSMKRSLRTNFLRYWTLTYLALPTVTDQEATPVPPTGDSEATPVPPTGDSETAPVPPTGDSGAPPVPPTGDSGAPPVPPTGDSGAPPVPPTGDSGAPPVPPTGDSGAPPVPPTGDSGAPPVPPTGDSGAPPVPPTGDAGPPPVPPTGDSGAPPVPPTGDSGAPPVTPTGDSETAPVPPTGDSGAPPVPPTGDSEAAPVPPTDDSKEAQMPAVIRF
notes: Native full-length protein purified from human milk (Astra Hässle AB); also called hBSSL; non-biotinylated human BSSL

The target of assay [1] is T1, Biotinylated human BSSL (human, UniProt P19835 21-753, Biotinylated on glycosacarides, 30-40 biotin/BSSL).
T1 construct: hBSSL biotinylated in house; also called b-hBSSL; human BSSL-biotin
T1 sequence: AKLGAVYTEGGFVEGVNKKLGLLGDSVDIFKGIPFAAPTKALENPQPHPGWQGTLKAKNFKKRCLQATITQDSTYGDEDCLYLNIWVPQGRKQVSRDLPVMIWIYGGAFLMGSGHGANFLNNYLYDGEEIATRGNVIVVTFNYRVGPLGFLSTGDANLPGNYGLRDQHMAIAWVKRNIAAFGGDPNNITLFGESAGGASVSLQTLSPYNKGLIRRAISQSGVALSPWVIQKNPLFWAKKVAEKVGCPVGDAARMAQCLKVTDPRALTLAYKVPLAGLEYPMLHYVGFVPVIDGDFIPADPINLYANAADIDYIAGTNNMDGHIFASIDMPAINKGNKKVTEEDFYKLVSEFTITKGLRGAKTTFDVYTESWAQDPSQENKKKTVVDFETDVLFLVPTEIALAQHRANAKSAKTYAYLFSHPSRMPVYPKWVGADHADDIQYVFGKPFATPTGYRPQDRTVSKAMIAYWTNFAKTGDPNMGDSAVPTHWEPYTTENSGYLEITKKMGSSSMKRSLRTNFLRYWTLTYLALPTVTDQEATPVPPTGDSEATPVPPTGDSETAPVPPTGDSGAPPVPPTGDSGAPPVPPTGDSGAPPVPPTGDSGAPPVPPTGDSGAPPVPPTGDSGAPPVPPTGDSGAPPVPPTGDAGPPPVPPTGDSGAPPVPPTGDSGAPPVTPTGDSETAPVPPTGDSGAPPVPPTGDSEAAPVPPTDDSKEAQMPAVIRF
Kind of assay: flow cytometry displacement assay; 3.0 ug antibody, 1 ug b-hBSSL. Summed up: (§1)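 Antibody (0.5–3.0 μg per reaction) preincubated with 1 μg biotinylated human BSSL in PBS pH 7.4, 30 min at 4 °C, then with human buffy coat 30 min at 4 °C. After erythrocyte lysis/fixation, bound BSSL on CD14+ monocytes detected by labelled streptavidin via flow cytometry.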
(In flow cytometry, cells or beads pass a laser one at a time.)

The assay “Mouse BSSL, recombinant” deals with B2. Kind of assay: SPR steady state, hIgG4 S228P captured by anti-Fab; in-house production batch (Example 9); Table 12 marks this value # as unreliable. As for the experimental part: (§2) Kinetic parameters of the hIgG4 S228P clones were determined by SPR using BIACORE® T200 (GE Healthcare). Single cycle kinetics was used to measure the affinity of the purified hIgG4 molecules to human and mouse BSSL. An anti-Fab antibody (GE Healthcare, #28958325) was immobilized on a CM5 S sensor chip by primary amine coupling using NHS-EDC chemistry. hIgG4 was captured by the anti-Fab antibody, and subsequently, five different concentrations of hBSSL (1:5 dilutions starting from 50 nM) or mBSSL (1:5 dilutions starting from 500 nM) were injected over the surface. The sensor chip surface was regenerated with 10 mM glycine-HCl pH 2.1. For binding to human BSSL, single cycle kinetic data was fitted to a 1:1 binding model and kinetic parameters were retrieved using software BlAevaluation. For mouse BSSL, a steady state analysis was performed by plotting the response level at equilibrium against each concentration, and KD values were retrieved by the BlAevalution software.

In assay [2] the target is B3. The experiment in a line: cell-based or functional assay.
The target in assay [3] is T1, Biotinylated human BSSL. The experiment in a line: flow cytometry displacement assay; 1.5 ug antibody, 1 ug b-hBSSL. Summed up:
as §1

The target of assay [4] is B3. The experiment in a line: SPR single cycle kinetics, hIgG4 S228P captured by anti-Fab. Summed up: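 hIgG4 S228P captured on an immobilized anti-Fab surface; five BSSL concentrations injected, 1:5 dilutions from 50 nM (human) or from 500 nM (mouse). Human BSSL: single-cycle kinetics, 1:1 fit. Mouse BSSL: KD from steady-state equilibrium response versus concentration. Regeneration with 10 mM glycine-HCl pH 2.1.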

The target of assay [5] is B3. Kind of assay: SPR single cycle kinetics, captured by anti-Fab, Absolute Antibody batch. On the procedure:
as §2, with “Healthcare).” for “Healthcare). Single cycle kinetics was used to measure the affinity of the purified hIgG4 molecules to human and mouse BSSL.”, “(GE” for “(GE Healthcare,”, “chemistry. The” for “chemistry.”, “hIgG4 antibodies were” for “hIgG4 was”, “(1:5 dilutions, 0.08-50” for “(1:5 dilutions starting from 50”, “mBSSL (1:2 dilutions, 50-800” for “mBSSL (1:5 dilutions starting from 500”

Assay [6] deals with B3. Kind of assay: cell-based or functional assay. The source holds these as a separate data set.
In the next assay the target is AS20 scFv. Kind of assay: HTRF competition against 5 nM b-hBSSL for 2.5 nM AS20 scFv. As for the experimental part:
In order to study the interaction between AS20 scFv and native mouse BSSL, a competition assay was developed. Detection of binding was enabled through donor molecule terbium-conjugated α-FLAG antibody (Cisbio #611FG2TL), which interacts with the C-terminal located FLAG-tag of the scFv, and acceptor molecule streptavidin-conjugated XL665 (Cisbio #610SAXL), which interacts with the biotin-moieties on human BSSL.
2.5 nM of AS20 scFv was pre-incubated for 2 hours with the mouse or human orthologue of BSSL, after which 5 nM b-hBSSL and the FRET donor and acceptor molecules were added. The mixture was finally incubated at room temperature for 16 hours and the binding signal (665 nm) and background/noise signal (615 nm) was measured using EnVision (PerkinElmer). The experimental output, Delta R, was calculated for each point using four replicates and two blanks.
A general note: Time-resolved FRET reads energy transfer from a long-lived donor to a nearby acceptor.

B1: S-SL048-106 hIgG4 S228P (antibody, V domains shown)
VH: QVQLVQSGAEVKKPGASVKVSCKASGYTFTSYNMHWVRQAPGQGLEWIGVIYPGDGSTSYNQKFQGRVTMTRDTSTSTVYMELSSLRSEDTAVYYCARDYYGSSPLGYWGQGTLVTVSS
VL: DIQMTQSPSSLSASVGDRVTITCSASSSISYMNWYQQKPGKAPKLLIYATSKLPSGVPSRFSGSGSGTDFTLTISSLQPEDFATYYCHQRSSTPTFGQGTKLEIKR
notes: also called mAb106
Broadly, the Kd is the concentration at which binding is half-saturated. On to B1, for which the “percentage reduction of b-hBSSL binding to CD14+ monocytes” value with Biotinylated human BSSL [1] was found to be 61%. In the assay with Mouse BSSL, recombinant, the Kd was found to be 111 nM. Besides, in assay [2], the “BSSL hydrolysis of triglycerides, relative value (no antibody = 100%); 0.19 ug antibody” value stood at 109%; the “BSSL hydrolysis of triglycerides, relative value (no antibody = 100%); 0.38 ug antibody” value is 123%; the “BSSL hydrolysis of triglycerides, relative value (no antibody = 100%); 0.75 ug antibody” value amounted to 129%; the “BSSL hydrolysis of triglycerides, relative value (no antibody = 100%); 1.5 ug antibody” value was 120%. Moreover, in assay [2], the “BSSL hydrolysis of triglycerides, relative value (no antibody = 100%); 3.0 ug antibody” value came out at 99.2% and the “BSSL hydrolysis of triglycerides, relative value (no antibody = 100%); 6.0 ug antibody” value was 104%. Moreover, the “percentage reduction of b-hBSSL binding to CD14+ monocytes” value in the assay with Biotinylated human BSSL [3] was 52%. In assay [4], the Kd amounted to 1.2 nM. For the same molecule, in assay [5], the Kd turned out to be 1.2 nM. In assay [6], the “BSSL hydrolysis of cholesterol esters, relative value (no antibody = 100%); 0.19 ug antibody” value turned out to be 94.8%; the “BSSL hydrolysis of cholesterol esters, relative value (no antibody = 100%); 0.38 ug antibody” value came out at 97.2%; the “BSSL hydrolysis of cholesterol esters, relative value (no antibody = 100%); 0.75 ug antibody” value is 93.9%; the “BSSL hydrolysis of cholesterol esters, relative value (no antibody = 100%); 1.5 ug antibody” value turned out to be 95.3%. For the same molecule, in assay [6], the “BSSL hydrolysis of cholesterol esters, relative value (no antibody = 100%); 3.0 ug antibody” value was found to be 99% and the “BSSL hydrolysis of cholesterol esters, relative value (no antibody = 100%); 6.0 ug antibody” value was determined as 90.5%.
What is called IC50 is the concentration needed to halve the response being measured. Lower therefore signals greater potency. The molecule B2 had an IC50 in the assay with AS20 scFv of 150 to 200 nM.
The same measure, in the same setting: under B3 stands ~2 nM.
